Data published in patent US20130236430A1, “PROLIFERATION, SEPARATION AND TRANSPLANTATION OF INHIBITORY NEURON PROGENITORS AND PROLIFERATION PROMOTING SUBSTANCES FOR THE PROGENITORS” (priority 2010, published 2013).

B1: Activin A (protein, UniProt P08476 311-426, looked up)
Inhibin beta A chain: GLECDGKVNICCKKQFFVSFKDIGWNDWIIAPSGYHANYCEGECPSHIAGTSGSSLSFHSTVINHYRMRGHSPFANLKSCCVPTKLRPMSMLYYDDGQNIIKKDIQNMIVEECGCS
modifications: Inhibin beta A chain

Legend:
[1] = Infusion of peroxidase tracer protein into the cistern magna, distribution visualized by DAB reaction; type: in vivo; settings: infused into cistern magna of mouse, formalin fixing after 30 minutes; FIG. 12
Source text: In the case of the microperoxidase being not able to penetrate, a barrier corresponding to the blood brain barrier is judged to be present.
It has already discussed that the most of the inhibitory neuron progenitors were distributed to the proximity to the brain surface or the subventricular zone. In order to establish a technique for delivering Activin A to the proximity to the brain surface or the subventricular zone, a protein which can readily be detected was employed instead of Activin A itself in a monitoring experiment. The protein employed was a microperoxidase which was a peptide obtained by enzymatic degradation of cytochrome C and purification of a heme-containing moiety. A caudal part of a mouse cerebellum has a large subarachnoid cavity referred to as the cistern magna, into which the microperoxidase was infused, and after 30 minutes the formalin fixing was conducted and the enzyme distribution was visualized by a color development via DAB reaction (peroxidase reaction). It is defined that when the microperoxidase cannot permeate then a barrier corresponding to the blood brain barrier exists. […] It means that there was no barrier corresponding to BBB between the subarachnoid cavity and the brain parenchyma (the boundary is the pia matter) or between the ventricle and the brain parenchyma (the boundary is a ventricular zone). […]

[2] = test system: inhibitory neuron progenitors in the brain; assay: In vivo infusion of Activin A solution into the brain of juvenile GAD67-GFP mouse, EdU labelling, histological observation; settings: P3 GAD67-GFP mouse; 1 μl of 1 μg/ml Activin A solution, one side; EdU i.p. after 30 minutes; examined after 1 week; FIG. 11
Procedure: Thereafter, the animal was maintained for 1 week, anesthetized, fixed, and examined histologically.
Also in order to verify the in vivo effect of Activin A, an Activin A solution was injected directly into the brain of a 3-day old (P3) juvenile mouse. Thirty minutes after this addition, EdU was injected intraperitoneally. […] Then the subsequent issue is a method for delivering Activin A to the inhibitory neuron progenitors inside the brain. Such a method is preferably a method avoiding any damage to the brain, such as penetration of an injection needle.

[3] = test system: inhibitory neuron progenitors (GFP positive cells from GAD67-GFP P0 mouse cerebral cortex); assay: BrdU uptake into DNA of sorted GFP positive cells cultured in neural stem cell culture medium with or without Activin A; type: cell-based; settings: neural stem cell culture medium with (M+A) or without (M) Activin A at 20 ng/ml; FIG. 10
Procedure: The cerebral cortex of a GAD67-GFP P0 mouse was taken out, treated with a protease (trypsin) to disperse the cells, which were subjected to a cell sorter to obtain GFP positive cells. A neural stem cell culture medium (Neurobasal medium +5% B27 supplement, 20 ng/ml bFGF, 20 ng/ml EGF) was combined with a E18 mouse fetal brain tissue and cultured overnight for conditioning, thereafter the cells were removed and then 5 μg/ml of BrdU was added and the GFP positive cells taken out by the cell sorter were cultured for 2 to 7 days and then fixed. As a result, a part of the GFP positive GABAergic neuron progenitors was confirmed to uptake BrdU in a conditioned neural stem cell culture medium to undergo a cell division (FIG. 9). When the GFP positive cells were cultured in a neural stem cell culture medium which had not been conditioned with the fetal brain tissue, the image as of FIG. 9 was not obtained.
The proliferation may be successful in the neural stem cell culture medium supplemented with essential proliferation factors, thus establishing an essential proliferation factor detection system.

Molecule | distribution from the cistern via the ventricles to the lateral ventricle and into the brain parenchyma [1] | permeation from the subarachnoid cavity through the pia matter into the brain parenchyma [1] | EdU positive cells (considered pia progenitors) in the pia matter on the infusion side [2] | number of GFP/EdU double-stained inhibitory neurons in the infused hemisphere compared with the opposite hemisphere [2] | uptake of BrdU into the DNA (increase in the DNA amount associated with cell division) [3]
microperoxidase | migrated from the surface of the lateral ventricle to the brain parenchyma | permeated from the pia matter into the brain parenchyma |  |  | 
B1 |  |  | a large number | significantly larger number | increase in the DNA amount associated with the cell division was evident
